Broadly, the kcat is the maximal rate divided by the concentration of active sites. As a reminder, the KM is the substrate concentration at which the rate is half of its maximum.

This is an account of results in the supplement of paper PMC7125110.

Sequences and labels used below:
B1: glmS ribozyme (parent)
chain: AUAAAAGCGCCAGAACUACAGAAAUGUAGUUGACGAGGAGGAGGUUUAUCGAAUUUUCGGCGGAUGCCUCCAAA

Common to all, as to details: with glucosamine-6-phosphate
Data set [1] covers variants of B1. The data set is described as follows: kcat; higher = faster cleavage; RNA array. In a few lines:
(§1)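 Tiles of sequenced MiSeq chips were imaged over ~14 h at 37 °C. On them, barcoded ribozyme variants had been transcribed in situ by E. coli RNA polymerase and were tracked via a hybridised Cy3 probe while glucosamine-6-phosphate (40 μM to 10 mM) in HEPES/KCl/Mg(OAc)2 buffer flowed in. Per-tile medians, normalised to baseline and to non-cleaving reference variants, were fit to one- or two-exponential decays for kobs, and weighted Michaelis–Menten fits gave kcat and KM.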

In data set [2] the parent is B1. The data set is described as follows: KM; higher = weaker cofactor use; RNA array. In a few lines:
as §1

Variants of B1 are the subject of data set [3]. The data set is described as follows: self-cleavage kobs at 40 uM GlcN6P; higher = faster cleavage; RNA array. In a few lines: as §1
The variants in data set [4] derive from B1. In words: self-cleavage kobs at 160 uM GlcN6P; higher = faster cleavage; RNA array. In a few lines:
as §1

Data set [5] covers variants of B1. In words: self-cleavage kobs at 640 uM GlcN6P; higher = faster cleavage; RNA array. In a few lines:
as §1

The variants in data set [6] derive from B1. In words: self-cleavage kobs at 2500 uM GlcN6P; higher = faster cleavage; RNA array. The method in brief:
as §1

In data set [7] the parent is B1. The data set is described as follows: self-cleavage kobs at 10000 uM GlcN6P; higher = faster cleavage; RNA array. The method in brief:
as §1

± gives the standard error. For part of these data: Variants at the floor of the assay were thinned out. Some results are limits rather than exact numbers.

Regarding AUAAAAGCGCUAGAACUACAGAAAUGUAGUUGACGAGGAGGAGGUUUAUCGAAUGUUCGGCGGAUGCCUCCAAA [C11U U55G], in the data set with glucosamine-6-phosphate [1], the kcat was determined as 0.0019 ± 0.00039 s⁻¹. Further, the KM with glucosamine-6-phosphate [2] came out at 1700 ± 660 µM. For the same variant, the “self-cleavage kobs at 40 uM GlcN6P” value in the data set with glucosamine-6-phosphate [3] was 5.89e-05 ± 1.1e-05 s⁻¹. For the same variant, the “self-cleavage kobs at 160 uM GlcN6P” value with glucosamine-6-phosphate [4] was determined as 0.000214 ± 4.9e-05 s⁻¹. Also, in the data set with glucosamine-6-phosphate [5], the “self-cleavage kobs at 640 uM GlcN6P” value worked out at 0.000351 ± 7.6e-05 s⁻¹. In addition, in the data set with glucosamine-6-phosphate [6], the “self-cleavage kobs at 2500 uM GlcN6P” value was 0.00137 ± 0.00026 s⁻¹. Further, the “self-cleavage kobs at 10000 uM GlcN6P” value in the data set with glucosamine-6-phosphate [7] was determined as 0.00164 ± 0.00016 s⁻¹.

With AUAAAAGCUCAAGAACUACAGAAAUGUAGUUGACGAGGAGGAGGUUUAUCGAAUUUUCGGCGGAUGCCUCCAAA [G9U C11A], the kcat with glucosamine-6-phosphate [1] is less than 1e-05 s⁻¹. The KM with glucosamine-6-phosphate [2] stood at 159 ± 62 µM. Further, the “self-cleavage kobs at 40 uM GlcN6P” value in the data set with glucosamine-6-phosphate [3] is less than 1e-05 s⁻¹. The “self-cleavage kobs at 160 uM GlcN6P” value with glucosamine-6-phosphate [4] was less than 1e-05 s⁻¹. Further, in the data set with glucosamine-6-phosphate [5], the “self-cleavage kobs at 640 uM GlcN6P” value is less than 1e-05 s⁻¹.

For the variant AUAAAAGCGCCAGAACUACAGAAAUGUAGUCGACGAGUAGGAGGUUUAUCGAAUUUUCGGCGGAUGCCUCCAAA [U31C G38U], the kcat with glucosamine-6-phosphate [1] is less than 1e-05 s⁻¹. Also, the “self-cleavage kobs at 40 uM GlcN6P” value in the data set with glucosamine-6-phosphate [3] was less than 1e-05 s⁻¹. In addition, the “self-cleavage kobs at 10000 uM GlcN6P” value with glucosamine-6-phosphate [7] was less than 1e-05 s⁻¹.

For AUAAAAGCGCCCGAACUACAGAAAUGUAGUUGACGAGGAGGAGGUUUCUCGAAUUUUCGGCGGAUGCCUCCAAA [A12C A48C], the kcat in the data set with glucosamine-6-phosphate [1] was found to be 0.000151 ± 3.5e-05 s⁻¹. Also, the “self-cleavage kobs at 640 uM GlcN6P” value with glucosamine-6-phosphate [5] is 3.34e-05 ± 1.1e-05 s⁻¹. In addition, in the data set with glucosamine-6-phosphate [6], the “self-cleavage kobs at 2500 uM GlcN6P” value came to 4.89e-05 ± 1.2e-05 s⁻¹. The “self-cleavage kobs at 10000 uM GlcN6P” value with glucosamine-6-phosphate [7] was 0.000111 ± 1.2e-05 s⁻¹.

For AUAAAAGCGCCAGAACUACAGAAAUGUAGUGGACGAGGAGGAGGUUUAUCGAAUUUUCGGCGGCUGCCUCCAAA [U31G A64C], in the data set with glucosamine-6-phosphate [1], the kcat stood at 2.01e-05 ± 3.9e-06 s⁻¹.

For AUAAAAGCGCCAGAACUACAGAAAUGUAGUUGACGAGGACGAGGUUUAUCGAAUUCUCGGCGGAUGCCUCCAAA [G40C U56C], the kcat with glucosamine-6-phosphate [1] is 6.61e-05 ± 9.2e-06 s⁻¹. For the same variant, the “self-cleavage kobs at 40 uM GlcN6P” value with glucosamine-6-phosphate [3] is less than 1e-05 s⁻¹. Besides, in the data set with glucosamine-6-phosphate [4], the “self-cleavage kobs at 160 uM GlcN6P” value is less than 1e-05 s⁻¹. Also, the “self-cleavage kobs at 2500 uM GlcN6P” value with glucosamine-6-phosphate [6] worked out at 4.67e-05 ± 2e-05 s⁻¹. For the same variant, the “self-cleavage kobs at 10000 uM GlcN6P” value in the data set with glucosamine-6-phosphate [7] came out at 5.45e-05 ± 8.6e-06 s⁻¹.

Turning to AUAAAAGCGCCAGAACUACAGAAAUGUAGUUGACGAGGAGGAGGUUUAUAGAAUUUUCGGCGGAUGCUUCCAAA [C50A C68U], in the data set with glucosamine-6-phosphate [1], the kcat turned out to be 1.77e-05 ± 3.7e-06 s⁻¹.

Regarding AUAAAAGCGCCAGAACUACAGAAAUGUAGUUGACUACGAGGAGGUUUAUCGAAUUUUCGUCGGAUGCCUCCAAA [G35U G37C G60U], in the data set with glucosamine-6-phosphate [1], the kcat is less than 1e-05 s⁻¹. In addition, the “self-cleavage kobs at 40 uM GlcN6P” value with glucosamine-6-phosphate [3] was less than 1e-05 s⁻¹. Also, in the data set with glucosamine-6-phosphate [5], the “self-cleavage kobs at 640 uM GlcN6P” value is less than 1e-05 s⁻¹.

For the variant AUAAAAGCGCCAGAACUACAGAAAUGUAGUUGACGAGUAGGAGGUUUCUCGCAUUUUCGGCGGAUGCCUCAAAA [G38U A48C A52C C71A], in the data set with glucosamine-6-phosphate [1], the kcat was less than 1e-05 s⁻¹. Besides, the “self-cleavage kobs at 40 uM GlcN6P” value with glucosamine-6-phosphate [3] was less than 1e-05 s⁻¹. The “self-cleavage kobs at 10000 uM GlcN6P” value with glucosamine-6-phosphate [7] was less than 1e-05 s⁻¹.

For AUAAAAGCGCCAGAACUACAGAAAUGUAGUUGACGAGGUGGAGGUUUAUCGAAUUUUCGGCGGAUGCCUCGAAA [A39U C71G], in the data set with glucosamine-6-phosphate [1], the kcat was 0.00162 ± 0.00048 s⁻¹. The KM in the data set with glucosamine-6-phosphate [2] came out at 3300 ± 1600 µM. The “self-cleavage kobs at 40 uM GlcN6P” value with glucosamine-6-phosphate [3] is 4.48e-05 ± 8.3e-06 s⁻¹. The “self-cleavage kobs at 160 uM GlcN6P” value in the data set with glucosamine-6-phosphate [4] turned out to be 0.000107 ± 2e-05 s⁻¹. The “self-cleavage kobs at 640 uM GlcN6P” value in the data set with glucosamine-6-phosphate [5] was 0.00022 ± 2.8e-05 s⁻¹. In the data set with glucosamine-6-phosphate [6], the “self-cleavage kobs at 2500 uM GlcN6P” value stood at 0.00066 ± 9.6e-05 s⁻¹. Further, in the data set with glucosamine-6-phosphate [7], the “self-cleavage kobs at 10000 uM GlcN6P” value was determined as 0.00126 ± 0.00011 s⁻¹.
